Results reported in patent US7943296B2, “Methods of screening using a natriuretic peptide receptor” (Oregon Health & Science University, priority 2005, dated 2011).

Target: T1, PKG (Rattus norvegicus, UniProt A9LNM8)
T1 construct: endogenous in cells; host or cells: primary neonatal rat cardiac fibroblasts transfected with 5'-FLAG sNRF fragments
T1 sequence (A9LNM8 1-671): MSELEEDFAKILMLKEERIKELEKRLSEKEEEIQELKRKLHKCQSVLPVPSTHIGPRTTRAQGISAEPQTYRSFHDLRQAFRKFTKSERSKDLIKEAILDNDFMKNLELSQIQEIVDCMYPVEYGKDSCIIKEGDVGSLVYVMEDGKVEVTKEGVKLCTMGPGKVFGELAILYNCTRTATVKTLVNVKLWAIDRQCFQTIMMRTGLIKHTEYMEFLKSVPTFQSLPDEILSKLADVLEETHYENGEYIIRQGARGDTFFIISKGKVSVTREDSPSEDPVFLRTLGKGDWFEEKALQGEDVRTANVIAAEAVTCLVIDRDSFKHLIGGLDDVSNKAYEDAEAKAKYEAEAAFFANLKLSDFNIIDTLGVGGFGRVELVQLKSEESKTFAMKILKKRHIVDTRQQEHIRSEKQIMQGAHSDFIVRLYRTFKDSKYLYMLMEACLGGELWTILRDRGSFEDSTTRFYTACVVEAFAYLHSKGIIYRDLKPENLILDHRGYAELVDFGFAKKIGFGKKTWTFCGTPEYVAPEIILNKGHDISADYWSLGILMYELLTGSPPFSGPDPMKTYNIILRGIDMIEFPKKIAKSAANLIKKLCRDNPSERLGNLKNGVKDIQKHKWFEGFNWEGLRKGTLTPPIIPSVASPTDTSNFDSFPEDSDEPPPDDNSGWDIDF
Assay: Co-immunoprecipitation of PKG with FLAG-tagged NPRA fragments in primary CFs
Assay type: binding
Conditions: 5'-FLAG-tagged fragment in transfected CFs, anti-FLAG M2 affinity gel
Procedure: Neonatal rat ventricular fibroblasts (CFs) were cultured from 1 to 2-day-old Harlan Sprague-Dawley rats as described previously (Simpson, Circulation Res. 56:884-94, 1985). Briefly, ventricles were dissected free from atria and quartered. Following dissociation in ADS buffer containing 1.5 mg/ml trypsin (Gibco #27250-018) and 1% DNase solution (2 mg/ml DNase type II, 150 mM NaCl) with serum neutralization the collected cells were pre-incubated in media at 37° C. for 90 minutes to allow CF attachment to the bottom of culture dishes. CFs were incubated in plating media for 48 hours, divided into 6-well culture plates or dual-well chamberslides, and grown to 50% confluency in DMEM with 10% FBS prior to use.
CFs were transiently transfected with nucleic acid molecules encoding sNRF^(806-1061), sNRF^(806-900), or sNRF^(806-860) using routine methods. Briefly, PCR-generated, 5′-FLAG epitope-tagged sNRFs were subcloned into the BamHI and EcoRI sites of pCDNA3 (Invitrogen) and sequenced to verify construction accuracy. […]
The ability of the NPRA fragments to immunoprecipitate PKG was determined in the primary CF cells transfected with the 5′-FLAG epitope-tagged NPRA fragments as follows. […] Bound antibody was detected with chemiluminescent substrate (Western Lightning ECL, PerkinElmer Life Sciences).

sNRF^(806-900): intracellular NPRA fragment, residues 806-900, excludes the cyclase-containing domain; shortest fragment observed to associate with PKG
co-immunoprecipitation of PKG: co-immunoprecipitated PKG
